Test in all cases: ELISA, lectin-captured E1E2 lysate, Ab 1 ug/ml;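 further: E1E2 captured on Galanthus nivalis lectin-coated plates, bound test antibody read out by an HRP-linked secondary antibody and TMB colour development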
A general note: ELISA stands for enzyme-linked immunosorbent assay.

Experiment [1] deals with E1E2 complex (H77) with E1 mutation Y276A (HCV genotype 1a, isolate H77, UniProt P27958 192-383; P27958 384-746).
The target of experiment [2] is E1E2 complex (H77) with E1 mutation S198A (HCV genotype 1a, isolate H77, UniProt P27958 192-383; P27958 384-746).
In experiment [3] the target is E1E2 complex (H77) with E1 mutation N209A (HCV genotype 1a, isolate H77, UniProt P27958 192-383; P27958 384-746).
Experiment [4] addresses E1E2 complex (H77) with E1 mutation D279A (HCV genotype 1a, isolate H77, UniProt P27958 192-383; P27958 384-746).
Experiment [5] has as its target E1E2 complex (H77) with E1 mutation G315A (HCV genotype 1a, isolate H77, UniProt P27958 192-383; P27958 384-746).
Experiment [6] concerns the target E1E2 complex (H77) with E1 mutation S294A (HCV genotype 1a, isolate H77, UniProt P27958 192-383; P27958 384-746).
Experiment [7] has as its target E1E2 complex (H77) with E1 mutation T329A (HCV genotype 1a, isolate H77, UniProt P27958 192-383; P27958 384-746).
The target in experiment [8] is E1E2 complex (H77) with E1 mutation P341A (HCV genotype 1a, isolate H77, UniProt P27958 192-383; P27958 384-746).
The target in experiment [9] is E1E2 complex (H77) with E1 mutation Q302A (HCV genotype 1a, isolate H77, UniProt P27958 192-383; P27958 384-746).
Experiment [10] concerns the target E1E2 complex (H77) with E1 mutation W320A (HCV genotype 1a, isolate H77, UniProt P27958 192-383; P27958 384-746).
For experiment [11], the target named is E1E2 complex (H77) with E1 mutation H298A (HCV genotype 1a, isolate H77, UniProt P27958 192-383; P27958 384-746).
Experiment [12] has as its target E1E2 complex (H77) with E1 mutation N196A/N305A (HCV genotype 1a, isolate H77, UniProt P27958 192-383; P27958 384-746).
Experiment [13] has as its target E1E2 complex (H77) with E1 mutation N234A (HCV genotype 1a, isolate H77, UniProt P27958 192-383; P27958 384-746).
The target in experiment [14] is E1E2 complex (H77) with E1 mutation T314A (HCV genotype 1a, isolate H77, UniProt P27958 192-383; P27958 384-746).
Experiment [15] has as its target E1E2 complex (H77) with E1 mutation T255A (HCV genotype 1a, isolate H77, UniProt P27958 192-383; P27958 384-746).
The target of experiment [16] is E1E2 complex (H77) with E1 mutation N305A/N209A (HCV genotype 1a, isolate H77, UniProt P27958 192-383; P27958 384-746).
Experiment [17] concerns the target E1E2 complex (H77) with E1 mutation A269G (HCV genotype 1a, isolate H77, UniProt P27958 192-383; P27958 384-746).
The target in experiment [18] is E1E2 complex (H77) with E1 mutation T292A (HCV genotype 1a, isolate H77, UniProt P27958 192-383; P27958 384-746).
Experiment [19] has as its target E1E2 complex (H77) with E1 mutation L258A (HCV genotype 1a, isolate H77, UniProt P27958 192-383; P27958 384-746).
Experiment [20] has as its target E1E2 complex (H77) with E1 mutation V194A (HCV genotype 1a, isolate H77, UniProt P27958 192-383; P27958 384-746).
The target in experiment [21] is E1E2 complex (H77) with E1 mutation G282A (HCV genotype 1a, isolate H77, UniProt P27958 192-383; P27958 384-746).
Experiment [22] addresses E1E2 complex (H77) with E1 mutation H316A (HCV genotype 1a, isolate H77, UniProt P27958 192-383; P27958 384-746).

B1: N4 IgG (antibody, V domains shown)
VH: VQLLEQSGPEVKKPGDSLRISCKMSGDSLVTTWIGWVRQKPGQGLEWMGIINPGDSSTNIYPGDSATRYGPSFQGQVTISIDKSTSTAYLQWNNVKASDTGIYYCARHVPVPISGTFLWREREMHDFGYFDDWGQGTLVIVSS
VL: ELTLTQSPGTLSLSPGERATLSCRASQSVSNNYLAWYQQKPGQAPRLLIYGASSRATGIPDRFSGSGSGTGFTLIISRLEPEDFAVYYCQQYGSSSITFGQGTRLEIKR
notes: also called IgG N4
As to B1, the “Binding relative to wt (%)” value in experiment [1] stood at 103%; in experiment [2], 78%; in experiment [3] it was 117%; in [4] it was 31%; in [5], 87%; in [6] it was 71%. Further, the “Binding relative to wt (%)” value in [7] worked out at 114%; in experiment [8] it was 105%; in experiment [9], 6%; in experiment [10], 121%; in [11], 62%; in [12], 4%. The “Binding relative to wt (%)” value amounted to 114% in experiment [13]; 83% in [14]; 96% in experiment [15]; 17% in experiment [16]; 55% in experiment [17]; 104% in experiment [18]. The “Binding relative to wt (%)” value stood at 89% in experiment [19], 109% in [20], 128% in [21] and 70% in [22].
